Bridge positions count the residues as written; N and C are the ends. Square brackets hold non-standard residues; d marks the D form. dPhe(4-F) = N[C@H](Cc1ccc(F)cc1)C(=O)O A value given as a limit tells only on which side of the number the result lay.

Holding throughout (experiment): cell-based or functional assay
Assay [1] has as its target melanocortin-1 receptor (human, UniProt Q01726 1-317).
The target in assay [2] is melanocortin-4 receptor (human, UniProt P32245 1-332).
The target in assay [3] is melanocortin-5 receptor (human, UniProt P33032 1-325).
melanocortin-5 receptor, sequence (P33032 whole entry): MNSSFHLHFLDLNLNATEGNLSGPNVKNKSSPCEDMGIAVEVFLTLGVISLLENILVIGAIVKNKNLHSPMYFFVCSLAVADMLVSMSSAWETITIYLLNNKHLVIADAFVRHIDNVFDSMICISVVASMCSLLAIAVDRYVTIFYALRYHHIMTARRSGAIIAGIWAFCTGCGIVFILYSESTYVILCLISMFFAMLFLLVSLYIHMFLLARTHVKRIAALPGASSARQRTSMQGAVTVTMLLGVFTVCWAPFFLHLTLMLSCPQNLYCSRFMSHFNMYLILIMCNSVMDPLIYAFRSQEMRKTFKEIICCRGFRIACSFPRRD
In assay [4] the target is melanocortin-3 receptor (human, UniProt P41968 1-323).
melanocortin-3 receptor, sequence (P41968 whole entry): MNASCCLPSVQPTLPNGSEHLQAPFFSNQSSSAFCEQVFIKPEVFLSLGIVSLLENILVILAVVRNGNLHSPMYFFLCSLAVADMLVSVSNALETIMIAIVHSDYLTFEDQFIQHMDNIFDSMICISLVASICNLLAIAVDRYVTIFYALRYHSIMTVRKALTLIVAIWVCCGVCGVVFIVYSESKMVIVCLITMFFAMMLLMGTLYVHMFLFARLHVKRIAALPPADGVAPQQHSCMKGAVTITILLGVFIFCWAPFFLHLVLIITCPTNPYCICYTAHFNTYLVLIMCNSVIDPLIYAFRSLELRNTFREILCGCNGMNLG

melanocortin-1 receptor, sequence (Q01726 whole entry): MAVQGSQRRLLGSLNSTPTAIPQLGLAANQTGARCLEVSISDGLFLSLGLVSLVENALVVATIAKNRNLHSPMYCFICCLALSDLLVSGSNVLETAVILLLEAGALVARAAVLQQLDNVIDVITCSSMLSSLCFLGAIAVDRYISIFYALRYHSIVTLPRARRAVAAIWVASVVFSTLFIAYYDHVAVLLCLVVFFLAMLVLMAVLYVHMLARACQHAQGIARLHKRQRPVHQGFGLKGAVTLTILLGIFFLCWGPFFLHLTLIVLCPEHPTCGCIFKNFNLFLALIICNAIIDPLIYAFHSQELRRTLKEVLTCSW
melanocortin-4 receptor, sequence (P32245 whole entry): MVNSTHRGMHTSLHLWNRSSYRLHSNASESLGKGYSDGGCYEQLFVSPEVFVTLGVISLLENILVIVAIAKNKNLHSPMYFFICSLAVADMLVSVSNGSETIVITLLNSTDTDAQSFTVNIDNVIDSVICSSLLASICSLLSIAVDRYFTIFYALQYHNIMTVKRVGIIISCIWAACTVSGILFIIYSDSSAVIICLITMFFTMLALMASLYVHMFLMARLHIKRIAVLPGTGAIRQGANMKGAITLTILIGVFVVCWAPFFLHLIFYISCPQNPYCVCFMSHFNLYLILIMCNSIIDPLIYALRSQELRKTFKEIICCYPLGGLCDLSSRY

B1: Compound 14: Ac-Arg-cyclo[Cys-D-Ala-Pro-D-Phe(p-F)-Arg-Trp-Cys]-NH2 (peptide)
peptide: Ac-RC[dA]P[dPhe(4-F)]RWC-NH2
modifications: disulfide 2-8
SMILES: CC(=O)N[C@@H](CCCNC(=N)N)C(=O)N[C@H]1CSSC[C@@H](C(N)=O)NC(=O)[C@H](Cc2c[nH]c3ccccc23)NC(=O)[C@H](CCCNC(=N)N)NC(=O)[C@@H](Cc2ccc(F)cc2)NC(=O)[C@@H]2CCCN2C(=O)[C@@H](C)NC1=O
In the case of B1, the “Ratios of EC50 values: MC1/4” value in assay [1] is 7. For the same molecule, the “cAMP Assay (EC-50)” value in assay [1] was 169 nM; in assay [2], 24 nM; in assay [3], 283 nM; in assay [4] it was greater than 10 µM. In addition, the “Ratios of EC50 values: MC5/4” value in assay [3] is 12. The “Ratios of EC50 values: MC3/4” value in assay [4] is greater than 400.
